Source: patent US6642203B1, “Crustacean antimicrobial peptides” (Institut Francais de Recherche pour l'Exploitation de la Mer, priority 1997, dated 2003)

Assays:
Type in all cases: cell-based
[1] = test system: Escherichia coli D31; assay: Antibacterial assay, inhibition of growth in liquid phase (MIC); conditions: Escherichia coli D31, 24 h at 30° C.
Method: The bacteria are cultured with a starting optical density A600=0.001 in “Poor-Broth” nutrient medium (1% bactotryptone, 0.5% NaCl w/v).
The fractions were tested by inhibition of growth in liquid phase.
10 μl aliquots of each fraction to be tested are incubated in microtitre plates with 100 μl of a suspension of bacteria at the midlogarithmic phase.
The bacterial growth is measured by determining the optical density A600 after an incubation of 24 hours at 30° C.
An identical procedure was used to determine the minimum inhibitory concentration (MIC) of the molecules on these bacterial strains. The MIC values correspond to an interval a-b of peptide concentrations, where a represents the highest concentration at which bacterial growth is observed, and b is the lowest concentration which causes 100% inhibition of growth.

[2] = test system: Fusarium oxysporum; assay: Antifungal activity, inhibition of growth in liquid phase
Method: (§1) The antifungal activity was determined against Neurospora crassa and Fusarium oxysporum by a test of inhibition of growth in liquid phase. 80 μl of fungal spores (final concentration: 10^4 spores/ml) are suspended in ½ Potato Dextrose Broth (DIFCO) supplemented with tetracycline (10 μg/ml) and cefotaxime (100 μg/ml). This suspension was added to 10 μl of the fraction to be tested in microtitre plates. The final volume is brought to 100 μl by addition of 10 μl of water. Growth inhibition can be observed under a microscope after 24 hours of incubation at 25° C. in the dark, and measured by the variation in the optical density at 600 nm after 48 hours.

[3] = test system: Neurospora crassa; assay: as above
Method: as §1

[4] = test system: Micrococcus luteus; assay: Measurement of the bacteriostatic properties (CFU over time); conditions: for colonies formed (cfu): 18 μM (8 times MIC)
Method: A midlogarithmic phase culture of Micrococcus luteus in the “Poor Broth” medium defined above was incubated at 30° C. in the presence of the peptide or (as control) of water. The final concentration of the molecules tested is 8 times higher than the MIC. 20-μl alquots are collected at various time intervals and cultured on nutrient agar plate. The number of colonies formed (CFU) is determined after 24 hours of incubation at 37° C.

B1: Penaeidin 3: antimicrobial peptide of 62 amino acids, about 6.6 kDa, from Penaeus vannamei haemolymph (protein, listed as Penaeus vannamei)
chain: EVYKGGYTRPIPRPPPFVRPLPGGPIGPYNGCPVSCRGISFSQARSCCSRLGRCCHVGKGYS
MIC [1]: > 5 µM
MIC [2]: > 5 µM
MIC [3]: > 5 µM
colonies formed (cfu) ([4]; incubation time 1 min): 4.30 10^4 cfu/ml
colonies formed (cfu) ([4]; incubation time 30 min): 4.45 10^4 cfu/ml
colonies formed (cfu) ([4]; incubation time 2 h): 3.15 10^4 cfu/ml
colonies formed (cfu) ([4]; incubation time 4 h): 4.60 10^4 cfu/ml
colonies formed (cfu) ([4]; incubation time 7 h): 4.50 10^4 cfu/ml
colonies formed (cfu) ([4]; incubation time 24 h): 5.60 10^4 cfu/ml
bacterial growth ([4]; 18 μM, after an incubation of 24 hours): no bacterial growth is observed
kind of antibacterial effect ([4]; 18 μM, number of colonies constant over sample collections): bacteriostatic effect
